Reference: the supplement of paper PMC10567573
± gives the standard deviation.

Experiment: protein stability index of a GFP-peptide fusion (GPS, HEK-293T) (PSI 1-6); higher = more stable
[1] = treatment: DMSO, c terminus: a fixed tail appended
[2] = treatment: MLN4924 1 uM, 8 h, c terminus: a fixed tail appended
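Further: 24-mer peptide tiles fused after GFP, lentivirally expressed, FACS-sorted into six equal bins by GFP/DsRed ratio, decoded by Illumina sequencing, PSI is the read-weighted mean bin number.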

Sequence	protein stability index [1]	protein stability index [2]	protein stability index (treatment: DMSO, c terminus: native)	protein stability index (treatment: MLN4924 1 uM, 8 h, c terminus: native)
FLPTALLCAYGFFASLRPSEPFLT [SLC19A2]	3.25 ± 0.56	3.26 ± 0.59	–	–
FLSENATVAAETRAVIAWMEKIPF [CPXM2]	2.04 ± 0.12	2.28 ± 0.5	–	–
FLSLHRAHLGEEAHKCLECGKCFS [ZNF263]	3.06 ± 0.28	3.44 ± 0.37	–	–
FLVVREPPRGAVERHSDLPPLNPT [SPNS1]	2.85 ± 0.39	3.09 ± 0.34	–	–
FPKKLAFAYLEDLHSEFDEQHGKK [SEC22B]	2.89 ± 0.28	3.26 ± 0.38	–	–
FQFASIDVAGNLDYKALSYVITHG [MYL5]	2.51 ± 0.47	2.29 ± 0.31	–	–
FRFTYYTILDIFRFALRFIRPDPR [FAF2]	2.56 ± 0.067	2.47 ± 0.33	–	–
FSAEFLKVFIPSLFLSHVLALGLG [BNIP3L]	3.57 ± 0.21	2.9 ± 0.93	–	–
FSIVSVAAHLALLLLCGTISLRVY [RTN2]	3.35 ± 0.76	3.16 ± 0.8	–	–
FVDILESDLKDDDAVPPGMESLIS [CDC25B]	3.55 ± 0.64	3.94 ± 0.43	–	–
FVELIGPKLREETAHMLGVRELRI [CABP4]	2.69 ± 0.88	2.14 ± 0.88	–	–
FVLGKGRGAAAAGGPQRIPAHRFV [BTBD1]	2.3 ± 0.25	2.71 ± 0.31	–	–
FWLGNEALHSLTQAGDYSMRVDLR [TNXB]	2.19 ± 0.71	2.44 ± 0.14	–	–
GAGHFEVVKLLVSHGANVNHTTVT [FEM1B]	2.23 ± 0.51	2.26 ± 0.2	–	–
GARDGIRYLEAEFKKGNRYIRCQK [SMG5]	3.14 ± 0.3	3.57 ± 0.32	–	–
GAREEDLDAVEAQIGCKLPDDYRC [FBXO3]	5.25 ± 0.073	5.15 ± 0.12	–	–
GAVIEVFGHRFIILDTDEYVLKYM [EFHC1]	2.5 ± 0.56	2.27 ± 0.67	–	–
GCKGFFRRSVRKNHMYSCRFSRQC [HNF4A]	2.15 ± 0.18	2.27 ± 0.36	–	–
GDELYEQSDEEQDSVKVALLETNP [CLPTM1]	5.37 ± 0.19	5.44 ± 0.17	–	–
GDLFESTPEVAAAPKPDAAPSIDL [SNAP91]	5.3 ± 0.29	5.27 ± 0.16	–	–
GDQDPLSKIPFKILSGHEHAVSTC [WDR88]	3.31 ± 0.23	3.78 ± 0.16	–	–
GDVMHLSQSPSVSQLSVLSLSGVM [PRAME]	2.43 ± 0.42	2.28 ± 0.31	–	–
GDWLLTANGSEIHKHVHFSSSFTS [SLC22A15]	2.59 ± 0.25	2.49 ± 0.36	–	–

Sequence	protein stability index [1]	protein stability index [2]	protein stability index (treatment: DMSO, c terminus: native)	protein stability index (treatment: MLN4924 1 uM, 8 h, c terminus: native)
GEEDFSLSATIGSILRELDTSMDG [SERTAD3]	3.75 ± 0.2	3.93 ± 0.44	–	–
GERPYKCSECGESFSRSSRLMSHQ [ZNF263]	3.25 ± 0.51	3.53 ± 0.83	–	–
GEYVVTAKAEGFTASTKNCMVGYD [CPXM2]	4.26 ± 0.28	3.65 ± 0.054	–	–
GFDTDGLSSAVWPGGETEALTRLE [CRY1]	4.54 ± 0.73	4.76 ± 0.29	–	–
GFWEEERPFWEEEKTFWKEEKSFW [CCDC70]	2.85 ± 0.35	3.274 ± 0.027	–	–
GGDGSGCSKQSGSFRKFRYGYNNV [ADAMTS4]	3.59 ± 0.3	3.389 ± 0.008	–	–
GGFQMHYEKTPFDQLAFIEELFSL [EID1]	2.12 ± 0.9	–	–	–
GGGGCDRYEPLPPSLPAAGEQDCC [KCNA3]	5.02 ± 0.33	5.06 ± 0.29	–	–
GGHSRERADEPQWSLYPSDSQVSE [CHGB]	5.28 ± 0.27	5.24 ± 0.34	–	–
GGLSPVTNLTVTMDQLQGLGSDYE [CDC25A]	4.24 ± 0.38	4.48 ± 0.18	–	–
GGMSHLHTFRATFQEPLYPALRLW [TRIM14]	2.21 ± 0.22	2.13 ± 0.091	–	–
GHGMTPLKVAAESCKADVVELLLS [FEM1B]	2.29 ± 0.21	2.47 ± 0.34	–	–
GHHERSIMTDLYYLSQTDGAGDWR [FUT8]	3.2 ± 0.35	3.12 ± 0.24	–	–
GHKEEEDGEGAGPGEQGGGKLVLS [ESRRA]	5.3 ± 0.27	5.42 ± 0.4	–	–
GHPYRGASQFLASASSSTTCCEST [IRX6]	4.24 ± 0.19	4.3 ± 0.22	–	–
GIKSKEAEEYRLKEHYLTFEKSRY [PSD2]	3.82 ± 0.093	3.94 ± 0.31	–	–
GIVEAMVVCRQLGLGFASNAFQET [LOXL2]	–	2.393 ± 0.002	–	–
GKLKWNLAAVTPHDFIEHILRKLP [CCND2]	2.61 ± 0.38	2.16 ± 0.18	–	–
GKSLLLMTRNDVLTGLQLKLGPAL [SAMD13]	2.27 ± 0.4	2.26 ± 0.28	–	–
GLPGAEGVEPAPWAQLEAPARLLL [FANCE]	3.33 ± 0.45	3.3 ± 0.05	–	–
GLSGGALSPLRAASDPLLSSVSPA [TFE3]	3.91 ± 0.32	3.91 ± 0.099	–	–
GLTKKRTKVQKKSLLLKKPLRVDL [NOP53]	3.25 ± 0.13	3.42 ± 0.35	–	–
GMPPAGTGMPMMPQQPVMFAQPMM [SNAP91]	3.03 ± 0.17	3.2 ± 0.34	–	–

Sequence	protein stability index [1]	protein stability index [2]	protein stability index (treatment: DMSO, c terminus: native)	protein stability index (treatment: MLN4924 1 uM, 8 h, c terminus: native)
GNNLLVFGGTGIPFGESNGNGVHV [KLHDC10]	2.66 ± 0.36	2.71 ± 0.41	–	–
GPPSRGGHMDDGGYSMNFNMSSSR [RBMX]	4.25 ± 0.32	3.96 ± 0.34	–	–
GQGPKPEADSQEQGHPQTGCECED [GAGE1]	5.64 ± 0.15	5.4 ± 0.31	–	–
GQPLRPLVPDASKQRLMENTEDWR [PDLIM7]	4.54 ± 0.24	4.72 ± 0.18	–	–
GQTPLAVSISISGSSRPCLDFLQE [ASB7]	2.83 ± 0.93	2.24 ± 0.37	–	–
GQYATTKGISQTNLITTVTPEKKA [EPB41L3]	5.07 ± 0.2	5.11 ± 0.17	–	–
GRCELARVLHDFGLDGYRGYSLAD [SPACA3]	2.62 ± 0.13	2.35 ± 0.32	–	–
GREKPGPLDFEAYSAAALQEAMKR [FCHO1]	4.21 ± 0.27	4.26 ± 0.18	–	–
GRESYIPGICVARVYHGWLFEGLG [SLA]	–	1.8 ± 0.88	–	–
GRFEQLGKTAASWCLHVNNWLQVS [FSD1]	2.29 ± 0.37	1.96 ± 0.2	–	–
GRPIKPPKKDLEDGEVPQHAGKKG [BRD3]	5.41 ± 0.37	5.55 ± 0.061	–	–
GRSFREEQCVSFNSHVYNGRTHQW [ADAMTSL2]	3.05 ± 0.56	3.15 ± 0.87	–	–
GRWLRSTRFSGSLDRLRETRVAD [PCDHGC5]	–	–	2.62 ± 0.48	2.84 ± 0.14
GSLCSLWFGASVLSLLELLELLLD [SCNN1D]	2.17 ± 0.36	1.91 ± 0.27	–	–
GSLHAGGARLVAACSAWLCPGLRL [AUH]	–	2.43 ± 0.7	–	–
GSMEQVSSHFLEQTLDKKLMSDLR [INTS4]	3.72 ± 0.2	3.73 ± 0.6	–	–
GSRVLHVVQTLYPFSSVTEEELNF [NCK2]	2.31 ± 0.31	2.31 ± 0.22	–	–
GSSETETEPPVALAPGPAPTRCLP [ESRRA]	5.23 ± 0.28	5.16 ± 0.11	–	–
GSSGGQQPSGMKEGVKRYEQEHAA [CHCHD6]	5 ± 0.054	5.47 ± 0.21	–	–
GTADGRVVKLENGEIETIARFGSG [APMAP]	4.66 ± 0.25	4.64 ± 0.1	–	–
GTGTGPEDGRPSLGSPYGQPPRFP [PDLIM4]	4.37 ± 0.21	4.53 ± 0.22	–	–
GTLVQLLGSDDINVVTCAAGILSN [CTNNB1]	2.32 ± 0.52	2.28 ± 0.12	–	–
GTTVTFDDLMGILCKSVLEIERAI [FEM1C]	2.31 ± 0.26	2.14 ± 0.42	–	–

Sequence	protein stability index [1]	protein stability index [2]	protein stability index (treatment: DMSO, c terminus: native)	protein stability index (treatment: MLN4924 1 uM, 8 h, c terminus: native)
GVDSMAEEGTSDSNTGSESNSATV [SMARCE1]	5.41 ± 0.14	5.57 ± 0.41	–	–
GVIVANMTEWKHQRITKQLEKWMQ [GLT8D2]	2.18 ± 0.085	2.4 ± 0.18	–	–
GVNYPKPMVNHAEASRLNIERMKQ [CRY1]	4.2 ± 0.3	4.11 ± 0.62	–	–
GVTEEQEGFADGFVKALDDLHKMN [JUNB]	4.69 ± 0.17	4.47 ± 0.32	–	–
GYNWCHDRNVVTIFSAPNYCYRCG [PPP2CA]	2.4 ± 0.41	2.27 ± 0.46	–	–
GYSTHADFVLEMNTAKSTSRVTAF [NLN]	2.29 ± 0.2	2.51 ± 0.12	–	–
GYSWSMGAYKSSTICYCPEKGTWT [KLHL14]	2.03 ± 0.26	2.08 ± 0.34	–	–
HAGQGGLFYSAEVEMLCDQAWGSM [CCDC3]	2.53 ± 0.77	2.47 ± 0.39	–	–
HAQVVEELSNFKSQKVLGLNEDPL [ZBED1]	4.34 ± 0.28	4.44 ± 0.32	–	–
HECGTKYPVEWAKFCCECGIRRMI [ZC2HC1A]	2.48 ± 0.3	2.71 ± 0.46	–	–
HEMREQHDAQVRLYKEELEQTYHA [LMNB1]	4.08 ± 0.38	4.27 ± 0.48	–	–
HFDLRDDDDAEEEGPKRELGVRRP [TCF25]	5.32 ± 0.26	5.24 ± 0.3	–	–
HGLAFWFDVAFIGSIMTVWLSTAP [CARM1]	2.78 ± 0.33	3.1 ± 0.53	–	–
HHSLASSLRSHHTHPSYGPPGVPP [DVL3]	3.51 ± 0.29	3.58 ± 0.22	–	–
HKVLELTAENERLQKKVEQLSREL [CEBPB]	5.76 ± 0.23	5.811 ± 0.011	–	–
HLCLRKADQKLVIIKQIPVEQMTK [NEK8]	2.46 ± 0.19	2.75 ± 0.23	–	–
HLDPGFLASDKTSAGNAPLNEEIN [C18orf25]	4.75 ± 0.29	4.97 ± 0.33	–	–
HLGCAVYQDMIYAVGGRDDTTELS [KLHL20]	3.39 ± 0.14	3.38 ± 0.17	–	–
HPANRSCRETGSFLDLFRYRVLLG [SLC22A15]	2.48 ± 0.44	2.15 ± 0.42	–	–
HPCGDKNCPAHWLAQDWERCNTTC [ADAMTSL2]	4.21 ± 0.14	3.99 ± 0.26	–	–
HQEGAKMAVRLAGGLQKMVALLNK [CTNNB1]	2.4 ± 0.11	2.42 ± 0.27	–	–
